{"source": "patent US20120288507A1", "about": "(Amgen, published 2012)", "binders": {"B1": {"name": "Ab-AF (antibody, V domains shown)", "VH": "QIQLVQSGPELKKPGETVKISCKASGYTFTDYSMHWVKQAPGKGLKWMGWINTETGEPTYADDFKGRFAFSLETSASTACLEINNLKNEDTATYFCSLTGYWGQGTSVTVSS", "VL": "DIQMTQSPASLSASVGETVTITCGASENIYGALNWYQRKQGKSPQVLIYGATNLADGMSSRFSGSGSGRQYSLKISSLHPDDVAMYYCQNVFSSPLTFGAGTKLELK", "notes": "Murine monoclonal antibody purified from hybridoma; also called WISE Loop 2 Mab (Ab-AF)"}, "B2": {"name": "Ab-AG (antibody, V domains shown)", "VH": "B1 VH with D62A, C80Y, E82Q, S97T", "VL": "B1 VL with V46L, Y49F, K74E, M85T, V91L, S93N, E105D", "notes": "Murine anti-WISE monoclonal antibody; also called WISE Loop 2 Mab (Ab-AG)"}, "B3": {"name": "Ab-AJ (antibody, V domains shown)", "VH": "EVQLQQSGAELVRSGASVKLSCTASGFNIKDYYMHWVKQRPEQGLEWIGWIDPENGDTEYAPKFQGKATMTADTSSNTAYLQLSSLTSEDTAVYYCNFYDVYSEGALDYWGQGTSVTVSS", "VL": "DIVMSQSPSSLAVSAGEKVTMSCKSSQSLLNSRTRKNYLAWYQQKPGQSPKLLIYWASTRESGVPDRFTGSGSGTDFTLTISSVQAEDLAVYYCKQSYNLPTFGGGTKLEIK", "notes": "Murine anti-WISE monoclonal antibody; also called WISE Loop 2 Mab (Ab-AJ)"}}, "key": {"human WISE [1]": {"target": "T1, human WISE (human, UniProt Q6X4U4 24-206)", "T1 construct": "Recombinant protein secreted from mammalian cells; also called hWISE; huWISE", "T1 sequence": "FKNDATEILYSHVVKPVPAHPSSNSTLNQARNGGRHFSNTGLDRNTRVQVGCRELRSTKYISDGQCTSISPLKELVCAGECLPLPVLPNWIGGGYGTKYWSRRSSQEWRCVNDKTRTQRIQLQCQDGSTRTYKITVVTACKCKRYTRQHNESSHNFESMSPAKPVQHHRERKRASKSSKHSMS", "assay": "capture ELISA binding profile (FIG. 28)", "experimental": "(§1) Relative capture of individual WISE mutant proteins or wild type proteins by either neutralizing antibodies or non-neutralizing antibodies was compared to assess whether any of these single amino acid changes affects the binding of an antibody to WISE protein. The bound WISE proteins were then detected using HRP-conjugated affinity-purified polyclonal antibody against WISE.\n(§2) Purified anti-WISE antibodies (0.5 ug/ml) were added onto high-binding ELISA plates pre-coated with 1 ug/ml of goat anti-mouse IgG Fc (Pierce). Plates were incubated for 1 hour in room temperature. Plates were then washed 4× with Wash Buffer. Subsequently alanine scanned WISE loop-2 mutant supernatants from transient transfection cultures (100× diluted) were added and incubated for 1 hour in room temperature. After 4× wash, rabbit anti-WISE Pab-biotin (50 ng/ml)+NeutrAvidin-HRP (Pierce, Cat #31001) were added onto the plates and incubated for 1 hour in room temperature. Plates were again washed 4× with Wash Buffer. Binding was analyzed using 1-Step Ultra TMB-ELISA substrate (Pierce; Cat #34028) according to the manufacturer's instructions."}, "human WISE L110A [2]": {"target": "T2, human WISE L110A (human, UniProt Q6X4U4 24-206)", "T2 construct": "Alanine mutant of loop 2, used as supernatant of transiently transfected mammalian cells", "T2 chain": "T1 sequence with L87A", "assay": "capture ELISA, WISE mutant supernatant (FIG. 28)", "experimental": "as §1, §2"}, "human WISE G117A [3]": {"target": "T3, human WISE G117A (human, UniProt Q6X4U4 24-206)", "T3 construct": "Alanine mutant of loop 2, used as supernatant of transiently transfected mammalian cells", "T3 chain": "T1 sequence with G94A", "assay": "capture ELISA, WISE mutant supernatant (FIG. 28)", "experimental": "as §1, §2"}, "human WISE N112A [4]": {"target": "T4, human WISE N112A (human, UniProt Q6X4U4 24-206)", "T4 construct": "Alanine mutant of loop 2, used as supernatant of transiently transfected mammalian cells", "T4 chain": "T1 sequence with N89A", "assay": "capture ELISA, WISE mutant supernatant (FIG. 28)", "experimental": "as §1, §2"}, "human WISE [5]": {"target": "T1, human WISE", "assay": "capture ELISA binding profile (FIG. 22)", "experimental": "as §1, §2"}, "human WISE K121A": {"target": "T5, human WISE K121A (human, UniProt Q6X4U4 24-206)", "T5 construct": "Alanine mutant of loop 2, used as supernatant of transiently transfected mammalian cells", "T5 chain": "T1 sequence with K98A", "assay": "capture ELISA, WISE mutant supernatant (FIG. 22)", "experimental": "as §1, §2"}, "human WISE I114A": {"target": "T6, human WISE I114A (human, UniProt Q6X4U4 24-206)", "T6 construct": "Alanine mutant of loop 2, used as supernatant of transiently transfected mammalian cells", "T6 chain": "T1 sequence with I91A", "assay": "capture ELISA, WISE mutant supernatant (FIG. 22)", "experimental": "as §1, §2"}, "human WISE L110A [6]": {"target": "T2, human WISE L110A", "assay": "capture ELISA, WISE mutant supernatant (FIG. 27)", "experimental": "as §1, §2"}, "human WISE G117A [7]": {"target": "T3, human WISE G117A", "assay": "capture ELISA, WISE mutant supernatant (FIG. 27)", "experimental": "as §1, §2"}, "human WISE N112A [8]": {"target": "T4, human WISE N112A", "assay": "capture ELISA, WISE mutant supernatant (FIG. 27)", "experimental": "as §1, §2"}}, "note": "Numbering of substitutions follows the chain as printed."}
{"binder": "B1", "values": [{"measurement": "binding result", "setting": "human WISE [1]", "result": "binds"}, {"measurement": "binding result", "setting": "human WISE L110A [2]", "result": "binds"}, {"measurement": "binding result", "setting": "human WISE G117A [3]", "result": "binds"}, {"measurement": "binding result", "setting": "human WISE N112A [4]", "result": "binds"}]}
{"binder": "B2", "values": [{"measurement": "binding result", "setting": "human WISE [5]", "result": "binds"}, {"measurement": "binding result", "setting": "human WISE K121A", "result": "binds"}, {"measurement": "binding result", "setting": "human WISE I114A", "result": "binds"}]}
{"binder": "B3", "values": [{"measurement": "absorbance", "setting": "human WISE L110A [6]", "result": "≤ 1.5", "unit": "absorbance"}, {"measurement": "absorbance", "setting": "human WISE G117A [7]", "result": "≤ 1.5", "unit": "absorbance"}, {"measurement": "absorbance", "setting": "human WISE N112A [8]", "result": "≤ 1.5", "unit": "absorbance"}]}
